The source of these data is patent US20170268035, “GENOMIC PROBES” (Howard Hughes Medical Institute, published 2017).

Series [1] addresses T1, dCas9-Halo (D10A/H840A SpCas9, nuclease-deficient) (Streptococcus pyogenes, UniProt Q99ZW2 SEQ:8-1375).
T1 chain: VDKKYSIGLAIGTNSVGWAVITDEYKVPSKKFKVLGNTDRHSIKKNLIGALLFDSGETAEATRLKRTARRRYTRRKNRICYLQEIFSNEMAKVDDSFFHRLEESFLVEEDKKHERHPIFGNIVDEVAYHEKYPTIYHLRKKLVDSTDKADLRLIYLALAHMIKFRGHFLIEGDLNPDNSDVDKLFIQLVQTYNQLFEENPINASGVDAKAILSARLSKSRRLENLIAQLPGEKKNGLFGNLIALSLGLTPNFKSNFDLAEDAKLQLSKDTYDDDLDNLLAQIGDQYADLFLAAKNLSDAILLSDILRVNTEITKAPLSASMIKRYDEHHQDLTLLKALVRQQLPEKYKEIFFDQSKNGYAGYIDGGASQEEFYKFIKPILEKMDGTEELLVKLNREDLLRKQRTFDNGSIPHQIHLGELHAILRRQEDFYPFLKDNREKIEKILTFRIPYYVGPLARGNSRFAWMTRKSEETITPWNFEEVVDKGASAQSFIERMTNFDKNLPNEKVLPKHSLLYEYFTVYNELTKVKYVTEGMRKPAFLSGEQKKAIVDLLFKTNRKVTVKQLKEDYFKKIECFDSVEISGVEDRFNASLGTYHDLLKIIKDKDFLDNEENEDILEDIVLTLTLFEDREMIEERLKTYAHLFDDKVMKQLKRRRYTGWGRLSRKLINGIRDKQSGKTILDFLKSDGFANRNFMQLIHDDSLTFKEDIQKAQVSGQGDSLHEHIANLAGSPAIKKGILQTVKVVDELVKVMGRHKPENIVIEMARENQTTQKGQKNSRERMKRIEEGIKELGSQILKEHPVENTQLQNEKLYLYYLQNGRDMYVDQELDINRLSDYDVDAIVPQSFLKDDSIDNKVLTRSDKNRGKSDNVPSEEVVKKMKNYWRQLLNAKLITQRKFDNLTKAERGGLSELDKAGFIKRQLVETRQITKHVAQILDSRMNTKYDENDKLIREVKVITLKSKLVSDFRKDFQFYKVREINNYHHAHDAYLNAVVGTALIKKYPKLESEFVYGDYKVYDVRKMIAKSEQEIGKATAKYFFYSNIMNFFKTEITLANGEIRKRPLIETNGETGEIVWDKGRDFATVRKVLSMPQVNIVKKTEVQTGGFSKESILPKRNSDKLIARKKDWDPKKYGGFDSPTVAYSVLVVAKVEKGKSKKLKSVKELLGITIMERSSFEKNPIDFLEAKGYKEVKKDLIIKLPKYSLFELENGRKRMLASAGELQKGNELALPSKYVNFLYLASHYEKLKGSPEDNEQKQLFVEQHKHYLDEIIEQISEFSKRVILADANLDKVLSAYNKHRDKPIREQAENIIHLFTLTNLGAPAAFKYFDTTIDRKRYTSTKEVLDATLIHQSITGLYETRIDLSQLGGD
The experiment in a line: EMSA; binary complex; 100-fold unlabelled sgRNA did not displace; room temperature. The following applies: tags: N-terminal His6, C-terminal HaloTag; JF549 or JF646 Halo ligand labelled; label: 5'-DY547. As to the method: The stability of the complex is evident from the lack of competition. The control lane (ctrl) indicates the reaction product from a mixture of Cy5 DNA and 30-fold of unlabeled target DNA with dCas9/sgRNA binary complex. As expected, only a small fraction of Cy5-DNA was incorporated into the dCas9 tertiary complex. (B) Competition EMSAs assessing the stability of the binary complex. (B, Left) The indicated fluorescent binary complex was assembled at room temperature for 10 min and incubated further with the indicated fold-amounts of unlabeled sgMajSat at room temperature for 10 min. Unlabeled target DNA was added to the solution subsequently to form a tertiary complex followed by gel electrophoresis. (B, Right) The DY547 intensity of the bands of the tertiary complex plotted as a histogram. The stability of the binary complex of dCas9 and DY547-sgRNA is evident from the lack of competition. The control lane (ctrl) indicates the reaction product from the binary complex formed by a mixture of DY547-sgMajSat and 100-fold of unlabeled sgMajSat with dCas9 protein. As expected, only a small fraction of DY547-sgMajSat was incorporated into the dCas9 tertiary complex. (C) Schematic of two-color CASFISH methods. […]
To explore the possibility of applying multiple dCas9/sgRNA species in one step for multicolor imaging, we assessed the stability of the binary complex by sgRNA competition assay.

The target of series [2] is T1, dCas9-Halo (D10A/H840A SpCas9, …). The experiment in a line: EMSA; PAM TGG; tertiary complex stable to 100-fold competitor DNA and 1.5 h with 30-fold; 37 C. The following applies: tags: N-terminal His6, C-terminal HaloTag; JF549 or JF646 Halo ligand labelled; label: 5'-DY547; Cy5 (EMSA). As to the method: The stability of the complex is evident from the lack of competition. Error bars represent SD of three independent experiments.
dCas9 protein and sgRNA were incubated together at room temperature for 10 min to examine the binary complex and subsequently were incubated with target DNA at 37° C. for 15 min to examine the tertiary complex. For the competition assay, an additional binary or tertiary complex reaction was performed after the addition of the competitor molecules. Resulting reaction mixtures were subjected to electrophoresis of 1% agarose gel in 1× Tris/borate/EDTA buffer containing 5 mM MgCl2 and were imaged with GE Typhoon Trio+Imagers.
Simultaneous imaging of multiple chromatin domains or genes is critical for studying chromatin interactions. To explore the possibility of using CASFISH to detect multiple DNA targets simultaneously, we first investigated the binding of CASFISH probes to target DNA by electrophoretic mobility shift assays (EMSA). […] To examine the stability of dCas9/sgMajSat binding to its target DNA, we carried out competition assays by adding excessive amounts of unlabeled target DNA to a preformed tertiary complex of JF549-dCas9/sgMajSat/Cy5-DNA. […]
A general note: Mobility shift assays separate free from complexed probe on a gel.

B1: DY547-sgMajSat (ssRNA)
RNA: CCAUAUUCCACGUCCUACAGGUUUAAGAGCUAUGCUGGAAACAGCAUAGCAAGUUUAAAUAAGGCUAGUCCGUUAUCAACUUGAAAAAGUGGCACCGAGUCGGUGCUUUUUUU
In the case of B1, the binding result in series [1] was “binds”.

B2: DY547-sgMajSat ; major satellite target DNA (ssRNA ; dsDNA)
RNA: B1 RNA
DNA 1: TTTCTTGCCATATTCCACGTCCTACAGTGG
DNA 2: CCACTGTAGGACGTGGAATATGGCAAGAAA
As to B2, the binding result in series [2] is “binds”.
